Article PMC12152883, “Bile acids inhibit equilibrative adenosine transport to alter adenosine receptor signaling in cholestasis” (The Journal of Biological Chemistry, 2025)
Values joined by “and” are separate entries in the source; they are usually repeats but may differ in a detail not shown here. Equal values may be shown once. Read-outs that look alike come from different tables or passages of the source.

Key:
ENT2 = target: T1, ENT2 (Homo sapiens, UniProt Q14542); conditions: cited from earlier work
T1 sequence (Q14542 1-456): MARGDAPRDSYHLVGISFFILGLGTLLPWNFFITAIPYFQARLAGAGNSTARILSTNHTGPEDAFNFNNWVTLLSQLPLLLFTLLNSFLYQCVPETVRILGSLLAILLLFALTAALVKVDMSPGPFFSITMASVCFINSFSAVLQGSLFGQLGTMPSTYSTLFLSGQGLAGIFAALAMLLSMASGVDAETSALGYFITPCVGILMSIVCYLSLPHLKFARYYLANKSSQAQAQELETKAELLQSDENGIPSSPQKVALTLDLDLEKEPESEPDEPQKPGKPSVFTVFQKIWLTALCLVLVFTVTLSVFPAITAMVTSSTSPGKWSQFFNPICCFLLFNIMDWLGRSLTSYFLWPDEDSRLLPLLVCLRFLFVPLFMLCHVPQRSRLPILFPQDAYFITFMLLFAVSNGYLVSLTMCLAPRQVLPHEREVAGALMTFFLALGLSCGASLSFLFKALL

ENT3 = test system: ENT3; design: method as in PMID 34144123; conditions: read-out: km of ENT3 for Ado transport; cited from earlier work
[1] = substrate: C[C@H](CCC(=O)O)[C@H]1CC[C@H]2[C@@H]3CC[C@@H]4C[C@H](O)CC[C@]4(C)[C@H]3C[C@H](O)[C@]12C; assay: Radiolabeled BA transport in ENT2 mRNA-injected Xenopus oocytes; type: cell-based, human; conditions: pH 7.4
Method: (§1) We used a Xenopus oocyte-based transport assay that was previously used to examine BA transport by plasma membrane–directed ENT3 with a truncated N-terminus (that harbors lysosomal targeting motif) to experimentally verify whether ENT2 is capable of translocating BAs across the cell membrane ([24]). We tested both ENT1 and ENT2 along with CNT2, a purine nucleoside-specific concentrative transporter, to investigate their capacities to transport radiolabeled BAs. […] Transport was measured at pH 7.4, which is the closest pH to the pH of the extracellular fluid in which cells are exposed to solutes such as BAs to conduct plasma membrane transport ([29]).
(§2) The generated pOX expression constructs were linearized with either the Not1 or Sac1 restriction enzymes. The digested products were purified via phenol‒chloroform extraction. The mRNAs were synthesized using mMESSAGE mMACHINE (Ambion) transcription kits according to the manufacturer’s instructions. The mRNAs were purified via lithium precipitation. Oocytes were procured from Ecocyte. Prior to experiments, procured oocytes were defolliculated by treating with collagenase A-OR II solution followed by washing with Barth’s solution. Following microscopic verification, selected oocytes were incubated to recover overnight at 25 °C in a shaker incubator. Fifty nanoliters (400–800 ng/μl) of equal amounts of mRNAs were injected into defolliculated oocytes the next day. Expression of plasmids was analyzed after RNA isolation from oocyte extracts and conducting qPCR analysis with gene-specific primers as described earlier ([30]). The injected oocytes were incubated at 15 °C for 24 h before transport assays were performed. The uptake of radiolabeled substrates was measured after a 30 min incubation in transport buffer (100 mM NaCl, 2 mM KCl, 1 mM CaCl2, 1 mM MgCl2, and 10 mM Hepes, pH 7.4) at room temperature. Uptake was terminated by washing the oocytes three times with arrest buffer containing 20 mM uridine. Individual oocytes were shaken overnight in 10% SDS for complete dissolution, and then the radioactivity was quantified with a Beckman liquid scintillation counter. The data are presented as the mean ± SD (n = 8–12 oocytes). A representative experiment from 3 to 5 independent experiments is presented.

[2] = substrate: C[C@H](CCC(=O)O)[C@H]1CC[C@H]2[C@@H]3[C@H](O)C[C@@H]4C[C@H](O)CC[C@]4(C)[C@H]3C[C@H](O)[C@]12C; assay: as above; type: cell-based, human; conditions: pH 7.4
Method: as §1, §2

[3] = other: printed in picture Fig. 2B

Nc1ncnc2c1ncn2[C@@H]1O[C@H](CO)[C@@H](O)[C@H]1O [Ado, adenosine]
Km (ENT2; read-out: Km of ENT2 for Ado transport): ~100 µM | Km (ENT3): 2000 µM

Nc1nc2c(ncn2[C@@H]2O[C@H](CO)[C@@H](O)[C@H]2O)c(=O)[nH]1 [guanosine]
Km (ENT2; cloned ENT2-expressing ENT-deficient PK15 cells, read-out: km for guanosine, ENT2): 2700 µM

B1: ENT2 (Homo sapiens) (protein)
chain: T1 sequence (Q14542 1-456)
notes: The complete ORF of ENT1 (amplified using forward primer); expressed in transfected cells; host or cells: Xenopus laevis oocytes injected with in vitro-transcribed capped mRNA from pOX-hENT2
Km ([1]; other: oocytes, Fig. 2B): 491 µM | Km [1, 3]: 500 µM | Km ([2]; other: oocytes, Fig. 2B): 195 µM and 200 µM | Km [2, 3]: 200 µM
